Data on 19 molecules can be found in patent publication US20170037149A1 (Amgen, published 2017).

The experiment addresses T1, human FLT3 (human, UniProt P36888 27-993).
T1 construct: On transfected CHO cells, or on the FLT3 positive human AML cell lines EOL-1 / MV4-11 where the row says so; also called hu FLT3; full length human FLT3
Briefly: FACS, scFv on CHO-human FLT3 pre-incubated with FLT3 ligand (competitor). (In general: A flow cytometer gives signals particle by particle.)

Description: The detection was performed using mouse anti-FLAG+PE-conjugated goat anti-mouse and the Fluorescence median detected by FACS (median (+ligand)/median (w/o ligand)*100%)
Afterwards cells were not washed but directly stained with FLT3 binder (scFv's). […] As negative control, cells were incubated with an unspecific scFv instead of FLT3 scFv.
For the evaluation of the data, the fluorescence median was detected by FACS.

B1: FL-26 scFv (scFv)
scFv: QVTLKESGPVLVKPTETLTLTCTVSGFSFRNARMGVSWIRQPPGKALEWLAHIFSNDEKSYSTSLKSRLTISKDTSKSQVVLTLTNMDPVDTATYFCARMPEYSSGWSGAFDIWGQGTMVTVSSGGGGSGGGGSGGGGSDIQMTQSPSSLSASVGDRVTITCRASQGIRNDLVWYQQKPGKAPKRLIYGTSTLQSGVPSRFSGSGSGTEFTLTISSLQPEDFATYYCLQHNSYPLTFGGGTKVEIK
notes: periplasmic prep
With B1, the “median [+ligand]/median [w/o ligand]*100” value was no less than 75%.

B2: FL-27 scFv (scFv)
scFv: QVTLKESGPVLVKPTETLTLTCTVSGFSFRNARMGVSWIRQPPGKALEWLAHIFSNDEKSYSTSLKSRLTISKDTSKSQVVLTLTNMDPVDTATYFCARMPEYSSGWSGAFDIWGQGTMVTVSSGGGGSGGGGSGGGGSDIQMTQSPSSLSASVGDRVTITCRTSQGIRNDLVWYQQKPGKAPKRLIYAASTLQSGVPSRFSGSGSGTEFTLTISSLQPEDFATYFCLQHYSYPLTFGGGTKVEIK
notes: periplasmic prep
As to B2, the “median [+ligand]/median [w/o ligand]*100” value was no less than 75%.

B3: FL-44 scFv (scFv)
scFv: QVTLKESGPVLVKPTETLTLTCTVSGFSFRNARMGVSWIRQPPGKCLEWLAHIFSNDEKSYSTSLKSRLTISKDTSKSQVVLTLTNMDPVDTATYFCARMPEYSSGWSGAFDIWGQGTMVTVSSGGGGSGGGGSGGGGSDIQMTQSPSSLSASVGDRVTITCRTSQGIRNDLVWYQQKPGKAPKRLIYAASTLQSGVPSRFSGSGSGTEFTLTISSLQPEDFATYFCLQHYSYPLTFGCGTKVEIK
notes: periplasmic prep
With B3, the “median [+ligand]/median [w/o ligand]*100” value is no less than 75%.

B4: FL-52 scFv (scFv)
scFv: QVTLKESGPTLVKPTETLTLTCTFSGFSLRYARMGVSWIRQPPGKCLEWLAHIFSNDEKSYSTSLKSRLTISKDTSKSQVVLTLTNMDPVDTATYFCARMPEYSSGWSGAFDIWGQGTMVTVSSGGGGSGGGGSGGGGSDIQMTQSPSSLSASVGDRVTITCRASQDIRNDLAWYQQKPGKAPKRLIYAASSLQSGVPSRFSGSGSGTEFTLTISSLQPEDFATYYCLQHNSYPLTFGCGTKLEIK
notes: periplasmic prep
In the case of B4, the “median [+ligand]/median [w/o ligand]*100” value is no less than 75%.

B5: FL-37 scFv (scFv)
scFv: QVTLKESGPVLVKPTETLTLTCTVSGFSLRNIKMGVSWIRQPPGKALEWLAHIFSNDEKSYSTSLKSRLTISKDTSKSQVVLTLTNMDPVDTATYFCARMPEYSSGWSGAFDIWGQGTMVTVSSGGGGSGGGGSGGGGSDIQMTQSPSSLSASVGDRVTITCRASQDISNYLAWYQQKPGKAPKRLIYAASSLQSGVPSRFSGSGSGTEFTLTISSLQPEDFATYYCLQHNSFPLTFGGGTKLEIK
notes: periplasmic prep
As for B5, the “median [+ligand]/median [w/o ligand]*100” value is no less than 75%.

B6: FL-38 scFv (scFv)
scFv: QVTLKESGPVLVKPTETLTLTCTVSGFSFRNARMGVSWIRQPPGKALEWLAHIFSNDEKSYSTSLKSRLTISKDTSKSQVVLTLTNMDPVDTATYFCARMPEYSSGWSGAFDIWGQGTLVTVSSGGGGSGGGGSGGGGSDIQMTQSPSSLSASVGDRVTITCRASQGIRNDLGWYQQKPGKAPKRLIYAASSLQSGVPSRFSGSGSGTEFTLTISSLQPEDFATYYCLQHNSYPLTFGGGTKLEIK
notes: periplasmic prep
Take B6: the “median [+ligand]/median [w/o ligand]*100” value is no less than 75%.

B7: FL-36 scFv (scFv)
scFv: QVTLKESGPTLVKPTETLTLTCTFSGFSLRYARMGVSWIRQPPGKALEWLAHIFSNDEKSYSTSLKSRLTISKDTSKSQVVLTLTNMDPVDTATYFCARMPEYSSGWSGAFDIWGQGTMVTVSSGGGGSGGGGSGGGGSDIQMTQSPSSLSASVGDRVTITCRASQDIRNDLAWYQQKPGKAPKRLIYAASSLQSGVPSRFSGSGSGTEFTLTISSLQPEDFATYYCLQHNSYPLTFGGGTKLEIK
notes: periplasmic prep
As to B7, the “median [+ligand]/median [w/o ligand]*100” value was no less than 75%.

B8: FL-23 scFv (scFv)
scFv: QVTLKESGPALVKPTETLTLTCTVSGFSFRNARMGVSWIRQPPGKALEWLAHIFSNDEKSYSTSLKSRLTISKDTSKSQVVLTLTNMDPVDTATYFCARMPEYSSGWSGAFDIWGQGTMVTVSSGGGGSGGGGSGGGGSDIQMTQSPSSLSASVGDRVTITCRASQDIGYDLGWYQQKPGKAPKRLIYAASTLQSGVPSRFSGSGSGTEFTLIISSLQPEDFATYYCLQHNSFPWTFGQGTKVEIK
notes: periplasmic prep
As for B8, the “median [+ligand]/median [w/o ligand]*100” value was no less than 75%.

B9: FL-28 scFv (scFv)
scFv: QVTLKESGPVLVKPTETLTLTCTVSGFSFRNARMGVSWIRQPPGKALEWLAHIFSNDEKSYSTSLKSRLTISKDTSKSQVVLTLTNMDPVDTATYFCARMPEYSSGWSGAFDIWGQGTMVTVSSGGGGSGGGGSGGGGSDIQMTQSPSSLSASVGDRVTITCRASQGIGDDLGWYQQIPGKAPKRLIYATSVLQSGVPSRFSGSGSGTEFTLTISSLQPEDFATYYCLQHNSYPLTFGGGTKVEIK
notes: periplasmic prep
As for B9, the “median [+ligand]/median [w/o ligand]*100” value was no less than 75%.

B10: FL-10 scFv (scFv)
scFv: QVTLKESGPVLVKPTETLTLTCTVSGFSFRNARMGVSWIRQPPGKALEWLAHIFSNDEKSYSTSLKSRLTISKDTSKSQVVLTLTNMDPVDTATYFCARMPEYSSGWSGAFDIWGQGTMVTVSSGGGGSGGGGSGGGGSDIQMTQSPSSLSASVGDRVTITCRASQDIRDDLGWYQQKPGNAPKRLIYGASTLQSGVPSRFSGSGSGTEFTLTISSLQPEDFATYYCLQHNSYPLTFGGGTKVDIK
notes: periplasmic prep
As for B10, the “median [+ligand]/median [w/o ligand]*100” value is no less than 75%.

B11: FL-59 scFv (scFv)
scFv: QVTLKESGPMLVKPTETLTLTCTVSGFSLRNVRMGVSWIRQPPGKALEWLAHIFSNDEKSYSTSLKSRLTISKDTSKSQVVLTLTNMDPVDTATYFCARMPEYSSGWSGAFDIWGQGTMVTVSSGGGGSGGGGSGGGGSDIQMTQSPSSLSASVGDRVTITCRASQDIRDDLGWYQQKPGNAPKRLIYGASTLQSGVPSRFSGSGSGTEFTLTISSLQPEDFATYYCLQHNSYPLTFGGGTRLEIK
notes: periplasmic prep
As for B11, the “median [+ligand]/median [w/o ligand]*100” value is no less than 75%.

B12: FL-24 scFv (scFv)
scFv: QVTLKESGPALVKPTETLTLTCTVSGFSLRNVRMGVSWIRQPPGKALEWLAHIFSNDEKSYSTSLKSRLTISKDTSKSQVVLILTNMDPVDTATYFCARMPEYSSGWSGAFDIWGQGTMVTVSSGGGGSGGGGSGGGGSDIQMTQSPSSLSASVGDRVTITCRASQDIRDDLVWYQQKPGKAPKRLIYAASTLQSGVPSRFSGSGSGTEFTLTISSLQPEDFATYYCLQHHSYPWTFGQGTKVEIK
notes: periplasmic prep
For B12, the “median [+ligand]/median [w/o ligand]*100” value is no less than 75%.

B13: FL-22 scFv (scFv)
scFv: QVTLKESGPVLVKPTETLTLTCTVSGFSFRNARMGVSWIRQPPGKALEWLAHIFSNDEKSYSTSLKSRLTISKDTSKSQVVLTLTNMDPVDTATYFCARMPEYSSGWSGAFDIWGQGTMVTVSSGGGGSGGGGSGGGGSDIQMTQSPSSLSASVGDRVTITCRASQGISNYLAWYQQKPGKAPKRLIYAASTLQSGVPSRFSGSGSGTEFTLTISSLQPEDFATYYCLQHNTYPWTFGQGTKVEIK
notes: periplasmic prep
For the molecule B13, the “median [+ligand]/median [w/o ligand]*100” value is no less than 75%.

B14: FL-25 scFv (scFv)
scFv: QVTLKESGPALVKPTETLTLTCTVSGFSFRNARMGVSWIRQPPGKALEWLAHIFSNDEKSYSTSLKSRLTISKDTSKSQVVLTLTNMDPVDTATYFCARMPEYSSGWSGAFDIWGQGTMVTVSSGGGGSGGGGSGGGGSDIQMTQSPSSLSASVGDRVTITCRASQDIRDDLGWYQQKPGKAPKRLIYAASTLQSGVPSRFTGGGSGTEFTLTISSLQPEDFATYYCLQHNSFPFTFGGGTKVEIK
notes: periplasmic prep
As for B14, the “median [+ligand]/median [w/o ligand]*100” value was no less than 75%.

B15: FL-43 scFv (scFv)
scFv: QVTLKESGPVLVKPTETLTLTCTVSGFSFRNARMGVSWIRQPPGKCLEWLAHIFSNDEKSYSTSLKSRLTISKDTSKSQVVLTLTNMDPVDTATYFCARMPEYSSGWSGAFDIWGQGTMVTVSSGGGGSGGGGSGGGGSDIQMTQSPSSLSASVGDRVTITCRASQGIRNDLVWYQQKPGKAPKRLIYGTSTLQSGVPSRFSGSGSGTEFTLTISSLQPEDFATYYCLQHNSYPLTFGCGTKVEIK
notes: periplasmic prep
As for B15, the “median [+ligand]/median [w/o ligand]*100” value was no less than 75%.

B16: FL-14 scFv (scFv)
scFv: QVTLKESGPALVKPTETLTLTCTLSGFSLNNARMAVSWIRQPPGKTLEWLAHIFSNDEKSYSTSLKSRLTISKDTSKGQVVLTMTNMDPVDTATYYCARIVGYGSGWYGYFDYWGQGTLVTVSSGGGGSGGGGSGGGGSDIQMTQSPSSLSASVGDRVTITCRASQDIRNDLGWYQQKPGKAPKRLIYAASTLQSGVPSRFSGSGSGTEFTLTISSLQPEDFATYYCLQHNSYPLTFGGGTKVEIK
notes: periplasmic prep
B16: the “median [+ligand]/median [w/o ligand]*100” value was no less than 75%.

B17: FL-11 scFv (scFv)
scFv: QVTLKESGPVLVKPTETLTLTCTLSGFSLNNAKMGVSWIRQPPGKALEWLAQIFSNGEKSYSTSLKSRLTISKDTSKGQVVLTMTNMDPVDTATYYCSRIVGYGSGWYGYFDYWGQGTLVTVSSGGGGSGGGGSGGGGSDIQMTQSPSSLSASVGDRVTITCRASQGIRNDLGWYQQKPGKAPKRLIYGASTLQSGVPSRFSGSGSGTEFTLTISSLQPEDFATYYCLQHNSYPLTFGGGTKVEIK
notes: periplasmic prep
B17: the “median [+ligand]/median [w/o ligand]*100” value is no less than 75%.

B18: FL-4 scFv (scFv)
scFv: QVTLKESGPALVKPTETLTLTCTLSGFSLNNAKMGVSWIRQPPGKALEWLAHIFSNDEKSYSTSLKSRLTISKDTSKGQVVLTMTNMDPVDTATYYCARIVGYGSGWYGYFDYWGQGTLVTVSSGGGGSGGGGSGGGGSDIQMTQSPSSLSASVGDRVTITCRASQDIRDDLGWYQQKPGNAPKRLIYGASTLQSGVPSRFSGSGSGTEFTLTISSLQPEDFATYYCLQHNSYPLTFGGGTKVDIK
notes: periplasmic prep
Take B18: the “median [+ligand]/median [w/o ligand]*100” value is no less than 75%.

B19: FL-6 scFv (scFv)
scFv: QVTLKESGPTLVKPTETLTLTCTLSGFSLNNARMAVSWIRQPPGKTLEWLAHIFSNDEKSYSPSLKSRLTISKDTSKSQVVLTMTNMDPEDTATYYCARIVGYGTGWYGFFDYWGQGILVTVSSGGGGSGGGGSGGGGSDIQMTQSPSSLSASVGDRVTITCRASQGIRNDLGWFQQKPGKAPKRLIYAASVLQSGVPSRFSGSGSGTEFTLTISSLQPEDFATYYCLQHNSYPLTFGGGTKVDIK
notes: periplasmic prep
Turning to B19, the “median [+ligand]/median [w/o ligand]*100” value was no less than 75%.
